Data taken from patent US20210121527A1, “METHODS OF TREATING MINIMAL RESIDUAL CANCER” (ICAHN SCHOOL OF MEDICINE AT MOUNT SINAI, priority 2018, published 2021).

Tests used:
T-HEp3 cells [1] = assay: T-HEp3 tumors on chicken embryo chorioallantoic membranes (CAM); type: in vivo; conditions: 24 hours pre-treatment, then 50 ng/ml daily
Experimental: FIG. 14B is a schematic illustration of the in vivo experimental procedure used in FIGS. 14C-14D. T-HEp3 cells were pre-treated for 24 hours with BMP7-F9 in vitro and then inoculated on chicken embryo chorioallantoic membranes (“CAM”s) (FIG. 14C), where they were treated daily in vivo with vehicle or BMP7-F9 (50 ng/ml) prior to collection of the tumors and quantification of number of HEp3 HNSCC cells (FIG. 14D) and levels of P-H3 (FIG. 14E). Arrows in FIG. 14E indicate overlapping P-H3 and DAPI fluorescence.
FIG. 14B is a schematic illustration of the in vivo experimental procedure used in FIGS. 14C-14D. T-HEp3 cells were pre-treated for 24 hours with BMP7-F9 in vitro and then inoculated on chicken embryo chorioallantoic membranes (CAMs) (FIG. 14C), where they were treated daily in vivo with vehicle or BMP7-F9 (50 ng/ml) prior to collection of the tumors and quantification of number of HEp3 HNSCC cells/tumor (FIG. 14D) and levels of P-H3 (FIG. 14E).

HEp3 HNSCC cells = assay: ERK/p38 activity ratio, dormancy mRNAs and NR2F1 in HEp3 cells; type: cell-based
Experimental: The effect on the ERK/p38 activity ratio is observed after 2-6 and 24 hours (second through fourth group of columns). In the first 30 minutes, ERK activity is stimulated by BMP7 (first column set). […] Arrows indicate NR2F1 flourescence. Differences in FIG. 13A and FIG. 13B, p<0.05 as calculated using Student's t test.
BMP7-F9 reduces the ERK/p38 activity ratio and induces various mRNAs in the dormancy signature (FIGS. 13A-13C). […] The effect on the ERK/p38 activity ratio is observed after 2-6 and 24 hours (second through fourth group of columns). In the first 30 minutes ERK activity is stimulated by BMP7 (first column set). […] Differences in FIG. 13A and FIG. 13B, p<0.05 as calculated using Student's t test.

HEp3-GFP HNSCC tumors = assay: HEp3-GFP HNSCC tumor surgery model in NSG mice, local recurrence and lung DCCs; type: in vivo, mouse
From the text: FIGS. 15A-15C show the evaluation of BMP7-F9 treatment in a mouse model of disease. FIG. 15A is a schematic illustration of an in vivo experimental procedure used to evaluate the effect of BMP7-F9 on metastasis initiation. […] Tumors were then removed via surgery. 1-2 days after surgery, the adjuvant treatment with BMP7-F9 was continued for another 3, 4, or 6 weeks. Animals were then euthanized and the DCC burden in lung was scored using fluorescence microscopy. […] At those time points, the percentage of local recurrence and DCC incidence was scored. In FIG. 15C, mice were treated as in FIG. 15A, except that the adjuvant treatment was for 4 weeks. The number of GFP positive cells in dissociated lungs was scored following treatment. […] Note that the median of DCC burden drops one log and that BMP-7 apparently cures from DCCs 3 of 7 animals.
Tumors were then removed via surgery. 1-2 days after surgery, the adjuvant treatment with BMP7-F9 was continued for another 4 weeks. Animals were then euthanized and the DCC burden in lung was scored using fluorescence microscopy. […] NSG mice were treated following the protocol in FIG. 15A for 4 weeks. At those time points, the percentage of local recurrence and DCC incidence was scored. The number of GFP positive cells in dissociated lungs was scored following treatment. […] Note that the median of DCC burden drops one log and that BMP-7 apparently cures from DCCs 3 of 7 animals.

T-HEp3 cells [2] = assay: Cell titer blue proliferation assay; type: cell-based; conditions: 48 hours
[3] = adjuvant treatment only, 3 weeks
[4] = adjuvant treatment only, 6 weeks
[5] = neo-adjuvant and adjuvant treatment, 4 weeks

B1: BMP7-F9: variant of human mature BMP7, homodimer of SEQ ID NO:8 (protein, listed as Homo sapiens)
chain: STGSKQRSQNRSKTPKNQEALRMANVAENSSSDQRQACKKHELYVSFRDLGWQDWIIAPEGYAAGYCEGECAFPLNSYMNATNHALVQTLVHVINPETVPKPCCAPTQLGAISVLYFDDSSNVILKKWRNMVVRACGCH
modifications: homodimer
growth of T-HEp3 cells in vivo (CAM) (T-HEp3 cells [1]): induces growth arrest of T-HEp3 cells
DEC2, p53 and p27 mRNAs (HEp3 HNSCC cells; 10 ng/ml, 24 hours): induces DEC2, p53, and p27 mRNAs
nuclear NR2F1 (immunofluorescence) (HEp3 HNSCC cells; 10 ng/ml, 24 hours): induces nuclear accumulation of NR2F1
ERK/p38 activity ratio (Western blot) (HEp3 HNSCC cells; 2, 5 and 10 ng/ml, 2-6 and 24 hours): reduces the ERK/p38 activity ratio over control
+DCCs in lungs (animals) (HEp3-GFP HNSCC tumors; [3]): 5
+local recurrence (animals) (HEp3-GFP HNSCC tumors; [3]): 1
DCC incidence (%) (HEp3-GFP HNSCC tumors; [3]): 50.0%
Local recurrence incidence (%) (HEp3-GFP HNSCC tumors; [3]): 9.1%
Median number of GFP^+/Vimentin^+ tumor cells/lung (HEp3-GFP HNSCC tumors; [3]): 0.62E+04
+DCCs in lungs (animals) (HEp3-GFP HNSCC tumors; [4]): 3
+local recurrence (animals) (HEp3-GFP HNSCC tumors; [4]): 0
DCC incidence (%) (HEp3-GFP HNSCC tumors; [4]): 42.9%
Local recurrence incidence (%) (HEp3-GFP HNSCC tumors; [4]): 0.0%
Median number of GFP^+/Vimentin^+ tumor cells/lung (HEp3-GFP HNSCC tumors; [4]): 0
+DCCs in lungs (animals) (HEp3-GFP HNSCC tumors; [5]): 4
+local recurrence (animals) (HEp3-GFP HNSCC tumors; [5]): 3
DCC incidence in lungs % (HEp3-GFP HNSCC tumors; [5]): 57.1%
Median number of GFP^+/Vimentin^+ tumor cells/lung (HEp3-GFP HNSCC tumors; [5]): 0.02E+04
animals apparently cured from DCCs (HEp3-GFP HNSCC tumors; [5]): 3 of 7
local recurrence % (HEp3-GFP HNSCC tumors; [5]): 42.9%
median of DCC burden in lungs (HEp3-GFP HNSCC tumors; [5]): drops one log
proliferation in vitro (cell titer blue) (T-HEp3 cells [2]): inhibits their proliferation in vitro
